Consider three molecules from patent US20260116996A1 (REGENTS OF THE UNIVERSITY OF MINNESOTA, published 2026).

T1: human serpinB12 (human, UniProt Q96P63 1-405)
T1 construct: Luminex antigen captured from a 293 cell lysate; not shown: V5-His tag of the pcDNA3.1 Directional V5-His-TOPO vector
T1 sequence (looked up): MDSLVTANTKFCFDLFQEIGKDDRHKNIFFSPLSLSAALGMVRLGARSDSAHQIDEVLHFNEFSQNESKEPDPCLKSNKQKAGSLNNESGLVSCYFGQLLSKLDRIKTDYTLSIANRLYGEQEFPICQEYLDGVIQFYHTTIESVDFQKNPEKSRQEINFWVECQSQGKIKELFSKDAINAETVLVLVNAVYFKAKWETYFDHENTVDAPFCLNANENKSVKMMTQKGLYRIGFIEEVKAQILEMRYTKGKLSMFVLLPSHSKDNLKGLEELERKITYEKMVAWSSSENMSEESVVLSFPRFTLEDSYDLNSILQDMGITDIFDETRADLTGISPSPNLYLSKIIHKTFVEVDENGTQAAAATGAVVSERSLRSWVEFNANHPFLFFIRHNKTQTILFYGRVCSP

T2: human serpinB11 (human, UniProt Q96P15 1-392)
T2 construct: Luminex antigen captured from a 293 cell lysate; not shown: V5-His tag of the pcDNA3.1 Directional V5-His-TOPO vector
T2 sequence (looked up): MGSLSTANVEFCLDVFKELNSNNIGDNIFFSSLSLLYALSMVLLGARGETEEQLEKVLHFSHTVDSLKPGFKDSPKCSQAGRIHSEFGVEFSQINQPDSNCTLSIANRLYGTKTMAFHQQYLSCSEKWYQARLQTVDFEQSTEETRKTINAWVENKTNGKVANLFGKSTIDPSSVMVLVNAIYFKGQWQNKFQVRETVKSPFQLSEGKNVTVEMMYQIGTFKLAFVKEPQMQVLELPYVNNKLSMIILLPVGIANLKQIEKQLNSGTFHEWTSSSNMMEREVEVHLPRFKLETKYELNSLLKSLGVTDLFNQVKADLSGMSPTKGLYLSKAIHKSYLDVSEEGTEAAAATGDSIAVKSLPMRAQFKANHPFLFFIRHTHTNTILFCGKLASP

T3: human serpinB7 (human, UniProt O75635 1-380)
T3 construct: Luminex antigen captured from a 293 cell lysate; not shown: V5-His tag of the pcDNA3.1 Directional V5-His-TOPO vector
T3 sequence (looked up): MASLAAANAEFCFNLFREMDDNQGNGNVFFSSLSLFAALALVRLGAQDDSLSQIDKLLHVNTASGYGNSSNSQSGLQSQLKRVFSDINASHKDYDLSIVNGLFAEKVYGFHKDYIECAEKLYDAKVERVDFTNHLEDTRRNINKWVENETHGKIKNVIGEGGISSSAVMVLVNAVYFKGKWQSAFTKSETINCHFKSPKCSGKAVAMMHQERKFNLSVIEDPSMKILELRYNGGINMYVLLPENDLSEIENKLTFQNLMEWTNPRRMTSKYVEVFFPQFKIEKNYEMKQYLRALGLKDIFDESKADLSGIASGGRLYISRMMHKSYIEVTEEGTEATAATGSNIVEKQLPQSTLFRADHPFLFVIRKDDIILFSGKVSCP

T4: human serpinB6 (human, UniProt P35237 1-376)
T4 construct: Luminex antigen captured from a 293 cell lysate; not shown: V5-His tag of the pcDNA3.1 Directional V5-His-TOPO vector
T4 sequence (looked up): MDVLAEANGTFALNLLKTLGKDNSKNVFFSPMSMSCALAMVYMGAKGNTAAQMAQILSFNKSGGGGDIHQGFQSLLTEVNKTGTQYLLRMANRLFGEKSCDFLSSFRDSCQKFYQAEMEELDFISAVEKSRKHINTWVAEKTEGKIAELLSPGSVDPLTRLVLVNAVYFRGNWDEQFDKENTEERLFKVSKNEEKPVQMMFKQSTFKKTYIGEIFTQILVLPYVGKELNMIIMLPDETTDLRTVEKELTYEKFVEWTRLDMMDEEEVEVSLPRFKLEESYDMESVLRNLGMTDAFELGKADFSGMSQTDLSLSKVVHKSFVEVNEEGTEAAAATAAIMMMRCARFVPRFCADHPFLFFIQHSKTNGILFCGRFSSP

T5: recombinant human serpinB13 (human, UniProt Q9UIV8 1-391)
T5 construct: The baculovirus-made protein (GenScript) was used for panning, ELISA and the cathepsin L assay; In the Luminex assay human serpinB13 was V5-His tagged and came from 293 cell lysates; also called rhB13
T5 sequence (looked up): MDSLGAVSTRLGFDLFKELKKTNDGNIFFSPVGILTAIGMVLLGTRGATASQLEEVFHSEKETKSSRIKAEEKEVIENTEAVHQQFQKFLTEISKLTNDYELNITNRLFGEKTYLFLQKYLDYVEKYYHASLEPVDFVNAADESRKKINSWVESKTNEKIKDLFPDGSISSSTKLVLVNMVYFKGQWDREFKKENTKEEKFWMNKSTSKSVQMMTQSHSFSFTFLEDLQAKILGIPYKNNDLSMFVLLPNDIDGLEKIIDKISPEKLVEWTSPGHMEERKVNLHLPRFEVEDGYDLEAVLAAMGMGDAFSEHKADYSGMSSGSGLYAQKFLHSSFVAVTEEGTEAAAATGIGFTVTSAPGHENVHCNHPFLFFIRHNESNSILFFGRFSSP

B1: recombinant fully human anti-serpinB13 antibody Clone 1 (antibody, human IgG1, kappa, V domains shown)
VH: QVQLQESGGGVVQPGRSLRLSCAASGFTFSSYGMHWVRQAPGKGLEWVAVISYDGSNKYYADSVKGRFTISRDNSKNTLYLQMNSLRAEDTAVYYCARDLGAVIAVAGTSTPYNWFDPWGQGTLVTVSS
VL: DVVMTQSPLSLPVTPGEPASISCRSRQSLLHSNGHNYLGWYLQKPGQSPQLLIYLASIRASGIPDRFSGSGSGTDFTLKISRVEAEDVGVYYCMQALQTPYTFGQGTKLEIKR
notes: also called mAb1; mAbs1
B2: recombinant fully human anti-serpinB13 antibody Clone 3 (antibody, human IgG1, kappa, V domains shown)
VH: QVQLQQWGAGLLKPSETLSLTCAVYGGSFSGYYWSWIRQPPGKGLEWIGEINHSGSTNYNPSLKSRVTISVDTSKNQFSLKLSSVTAADTAVYYCARRYCSGGSCYLVGTGSELDYWGQGTLVTVSS
VL: DIQMTQSPSTLSASVGDRVTITCRASQSISSWLAWYQQKPGKAPKLLIYKASSLEIGVPSRFSGSGYGTEFTLTISSLQPDDFATYYCLQYSTHSTFGQGTRVEIKR
notes: also called mAb3; CLONE3-H(m1) / CLONE3-L(m1)
B3: recombinant fully human anti-serpinB13 antibody Clone 2 (antibody, human IgG1, kappa, V domains shown)
VH: QMQLVQSGGGVVRPGGSLRLSCAASGFTFDDYGMSWVRQAPGKGLEWVSGINWNGGSTGYADSVKGRFTISRDNAKNSLYLQMNSLRAEDTALYYCARESSMTTVTTYLLREVGVGLDFDYWGQGTLVTVSS
VL: ETTLTQSPGTLSLSPGERATLSCRASQTVSGSYLAWYQQKPGQPPRLLIYGASSRATGIPDRFSGSGSGTDFTLTISRLEPEDFAVYYCQDYGSSRTFGQGTKVELKR
notes: also called mAb2; CLONE2-H(m1) / CLONE2-L(m1)

The first experiment has as its target T1, human serpinB12. The experiment can be described thus: Luminex bead assay, beads coated with human serpinB12, background (Gfp and Scgn beads) subtracted. As for the experimental part:
(§1) The latter was determined as the average antibody binding to Luminex beads coated with Gfp and Scgn control antigens. Similar data were obtained for antigen binding of Fab fragments of these antibodies (data not shown).
(§2) Luminex assay. Luminex-based technology was used to measure serpinB13 AA in human samples. Initially, the Luminex beads were precoated with serpinB13, Gfp and Scgn, using precleared lysates of 293 cells that had been transfected with individual cDNAs. Biotinylated mouse anti-human K and 2 chain mAbs (BD Biosciences) (dilution 1:300) and streptavidin (Invitrogen) (dilution 1:200) were used as secondary reagents to measure human serum binding activity to individual antigens. The data were expressed as fluorescence intensity (F.I.) due to serum binding activity in the presence of beads precoated with serpinB13 and after subtracting the average F.I. due to serum binding activity in the presence of beads precoated with control proteins, Gfp and Scgn (e.g. F.I.^B13-[F.I.^GFP+F.I.^Segn]/2). The samples were evaluated based on the level of F.I. and the degree of inhibition of binding to serpin-B13 coated beads with soluble serpinB13 (2.5 μg/mL), compared with the bovine serum albumin (BSA). […] All samples were run blind on three independent occasions. Subjects with serum samples that produced a positive results three times were considered positive. Subjects with serum samples that produced a negative result on at least one occasion were considered negative.
(§3) To determine whether anti-serpin activity is specific, binding of three human recombinant antibodies to serpinB13 was examined for potential cross-reactivity with other clade B serpins. Binding to the beads conjugated with Gfp and Scgn was used to subtract the background and the assay was developed using the same reagents as those described above for measuring serpinB13 AA in serum samples.
With B1, the binding result is “no binding (tested: 1.0 µg/mL)”.
B2: the binding result is “no binding (tested: 1.0 µg/mL)”.
Consider B3, for which the binding result was “no binding (tested: 1.0 µg/mL)”.

A further experiment has as its target T2, human serpinB11. Nature of the experiment: Luminex bead assay, beads coated with human serpinB11, background (Gfp and Scgn beads) subtracted. As to the method:
as §1, §2, §3
For B1, the binding result is reported as “no binding (tested: 1.0 µg/mL)”.
B2: the binding result is listed as “no binding (tested: 1.0 µg/mL)”.
With B3, the binding result is “no binding (tested: 1.0 µg/mL)”.

The next experiment has as its target T3, human serpinB7. Nature of the experiment: Luminex bead assay, beads coated with human serpinB7, background (Gfp and Scgn beads) subtracted. As to the method: as §1, §2, §3
For B1, the binding result is “no binding (tested: 1.0 µg/mL)”.
The same measure, in the same setting: the same measure for B2: “no binding (tested: 1.0 µg/mL)”; for B3: “no binding (tested: 1.0 µg/mL)”.

The target in another experiment is T4, human serpinB6. The experiment can be described thus: Luminex bead assay, beads coated with human serpinB6, background (Gfp and Scgn beads) subtracted. As to the method:
as §1, §2, §3
Regarding B1, the binding result is recorded as “no binding (tested: 1.0 µg/mL)”.
Same read-out and setting: the result for B2 reads “no binding (tested: 1.0 µg/mL)”.
On the same count and under the same terms, the result for B3 reads “no binding (tested: 1.0 µg/mL)”.

A further experiment has as its target T5, recombinant human serpinB13. The experiment can be described thus: Luminex bead assay, beads coated with human serpinB13, antibody at 1.0 µg/mL, background (mean of Gfp and Scgn beads) subtracted. As for the experimental part: as §1, §2, §3
As to B1, the binding result was “binds”.
Still for that read-out and setting: the result for B2 reads “binds”.
Same read-out and setting: the same measure for B3: “binds”.
